Positions count from the first letter of the chain named. In names and notes the source's numbering stands.
Substrate: Nc1ncnc2c1ncn2[C@@H]1O[C@H](COP(=O)(O)OP(=O)(O)OP(=O)(O)O)[C@@H](O)[C@H]1O
Test: coupled NADH fluorescence ATPase assay
Assay type: biochemical, Caulobacter vibrioides
Details: no ssDNA, FITC-casein present, 0.1 μM Lon6, Mg2+, pH 8.0, 30 °C
From the text: coupled NADH fluorescence ATPase assay on Lon

B1: Lon (Caulobacter vibrioides NA1000) (protein)
chain: MSELRTLPVLPLRDIVVFPHMVVPLFVGRDKSVRALEEVMRGDKQILLVTQKNSADDDPAPGDIFEVGVLATVLQLLKLPDGTVKVLVEGKARAAVVSFTDQESYYEAQIGEVSEDDGAGPEAEALSRAVVEQFENYVKLNKKVPPEALASIPQIAEPGKLADSIAAHLSVKIGDKQNLLEIFDVVKRLEKVFALMEGEISVLQVEKKIRSRVKRQMEKTQREYYLNEQMKAIQRELGDPDDARDELIDLEKRIKKTKLSKEARTKAESELKKLRNMSPMSAESTVVRNYLDWLLSIPWGKAKTKKIDLVESEGILDADHYGLEKVKERILEYLAVQARTNSLKGPILCLVGPPGVGKTSLGKSIAKATGREFVRMSLGGVRDEAEIRGHRRTYIGSMPGKVVQSMKKAKTTNAFVLLDEIDKMGSDYRGDPASALLEVLDPSQNSTFGDHYLEVDYDLSQVMFVTTANSLNMPQPLLDRMEIIRIPGYTEDEKLEIAKRHILPKLAKDHGLKPAEFIVPDKAIRDLIRYYTREAGVRSLERELGALARKTVRDLAREKVASITIDDERLAKYAGVKKYRYGETDEVDQVGIVTGLAWTEFGGDILTIEAVKMPGKGRMQITGNLKDVMKESIAAANSYVRSRALQFGIKPPVFEKTDVHIHVPDGATPKDGPSAGIAMALAMVSVLTGIPIRKDIAMTGEITLRGRVTAIGGLKEKLLAALRSGVKTVLIPQENEKDLADVPQTVKDGLEIIPVSTVDEVLKHALTGPLTPVEWNEAEEPITTSAKKDDGDSDAMLTH
notes: Caulobacter Lon from pBAD33-Lon, purified on hydroxyapatite and MonoQ, no tag mentioned
Km (Hill fit n 1.2, brackets 95% CI): 92[67–135] μM

B2: Lon (Caulobacter vibrioides NA1000; K301A/K303A/K305A/K306A) (protein)
chain: B1 chain with K301A, K303A, K305A, K306A
notes: as for B1
Km (Lon4A, Hill fit n 1.2, brackets 95% CI): 206[134–707] μM

B3: Lon (Caulobacter vibrioides NA1000; K301E/K303E/K305E/K306E) (protein)
chain: B1 chain with K301E, K303E, K305E, K306E
notes: as for B1
Km (Lon4E, Hill fit n 1.6, brackets 95% CI): 28[23–28] μM

Source: paper PMC11719849, “Allosteric modulation of the Lon protease via ssDNA binding and local charge changes” (The Journal of Biological Chemistry, 2024)
